Consider two molecules from paper PMC9239988 (Nature Communications, 2022).

The target of data set [1] is tick-borne encephalitis virus (TBEV) pr, the pr part of prM (aa 1-88) (tick-borne encephalitis virus strain Neudoerfl). Put plainly: SPR; […] ([…] to 7.8 nM), […], pH 5.5; 1:1 model; […].
The data set “SEC-MALS” deals with the molecule itself. As to the kind of experiment: SEC-MALS.

In the case of “tick-borne encephalitis virus (TBEV) soluble envelope protein E (sE) (from UniProt P14336 281-680) (domain or fragment)”, the Kd in data set [1] was 0.066 to 10 µM.

B1: tick-borne encephalitis virus (TBEV) soluble envelope protein E (sE) (domain or fragment)
chain: SRCTHLENRDFVTGTQGTTRVTLVLELGGCVTITAEGKPSMDVWLDAIYQENPAKTREYCLHAKLSDTKVAARCPTMGPATLAEEHQGGTVCKRDQSDRGWGNHCGLFGKGSIVACVKAACEAKKKATGHVYDANKIVYTVKVEPHTGDYVAANETHSGRKTASFTISSEKTILTMGEYGDVSLLCRVASGVDLAQTVILELDKTVEHLPTAWQVHRDWFNDLALPWKHEGAQNWNNAERLVEFGAPHAVKMDVYNLGDQTGVLLKALAGVPVAHIEGTKYHLKSGHVTCEVGLEKLKMKGLTYTMCDKTKFTWKRAPTDSGHDTVVMEVTFSGTKPCRIPVRAVAHGSPDVNVAMLITPNPTIENNGGGFIEMQLPPGDNIIYVGELSHQWFQKGSSIG
B1: the “stoichiometry N” value in “SEC-MALS” was found to be 2.
